Values quoted from earlier work, collected in paper PMC5394478.
pKd: −log10 of the molar value.

Key:
[1] = biological target: IFNLR1 Box1 (Homo sapiens) (UniProt Q8IU57); experiment: Biolayer Interferometry
[2] = biological target: IFNLR1 Box1-Box2 (Homo sapiens) (UniProt Q8IU57); experiment: Biolayer Interferometry

- pKd [1]: 5.92
- pKd [2]: 7.15
Substance: JAK1 FERM-SH2 (from UniProt P23458)
